The record followed here is article PMC5771398, “Structural basis for assembly of the CBF3 kinetochore complex” (The EMBO Journal, 2017).

What is called stoichiometry N is the number of molecules, sites or subunits per partner or assembly.

In this experiment the target is T1, Cep3-Ctf13-Skp1 core complex (S. cerevisiae, UniProt P40969 1-608; P35203 1-478; P52286 1-194, four phosphorylations (intact mass spectrometry); sites not given).
T1 construct: Cep3, budding yeast, full length; Ctf13, budding yeast, full length; Skp1, budding yeast, full length; Core complex as it stood in size-exclusion chromatography with Ndc10 or the Ndc10 NTD (tag cleaved); also called CBF3 core complex; coreWT; source: S. cerevisiae, co-expressed, purified (Strep-Trap, heparin, TEV, anion exchange, SEC); not shown: double-StrepTactin tag, C-terminal, cleaved; …
The experiment is described as follows: SEC; Superose 6 in 10 mM HEPES, 300 mM NaCl, 1 mM DTT; core and Ndc10 separated on heparin and combined, tag cleaved; stoichiometry judged by band intensities on SDS-PAGE/Coomassie. Particulars: both partners purified. On the technique in general: Size exclusion chromatography separates by hydrodynamic size, large species first.

T1 sequence (P40969 whole entry, chain 1 of 3): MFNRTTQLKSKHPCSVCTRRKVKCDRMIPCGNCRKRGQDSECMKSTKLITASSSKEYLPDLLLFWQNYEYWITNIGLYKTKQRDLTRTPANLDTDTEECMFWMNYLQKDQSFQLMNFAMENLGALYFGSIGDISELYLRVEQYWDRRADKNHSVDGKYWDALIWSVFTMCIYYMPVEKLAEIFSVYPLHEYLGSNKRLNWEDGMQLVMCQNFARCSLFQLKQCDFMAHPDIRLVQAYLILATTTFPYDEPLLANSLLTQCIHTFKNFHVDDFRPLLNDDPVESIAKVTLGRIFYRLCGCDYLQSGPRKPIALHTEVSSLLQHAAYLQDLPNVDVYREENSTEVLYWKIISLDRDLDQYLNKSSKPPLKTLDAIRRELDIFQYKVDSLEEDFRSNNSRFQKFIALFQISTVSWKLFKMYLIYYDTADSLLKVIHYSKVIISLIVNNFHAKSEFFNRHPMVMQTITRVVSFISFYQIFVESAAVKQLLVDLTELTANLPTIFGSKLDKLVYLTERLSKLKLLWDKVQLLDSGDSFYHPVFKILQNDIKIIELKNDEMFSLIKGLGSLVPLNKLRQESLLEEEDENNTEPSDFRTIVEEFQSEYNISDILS
T1 sequence (P35203 whole entry, chain 2 of 3): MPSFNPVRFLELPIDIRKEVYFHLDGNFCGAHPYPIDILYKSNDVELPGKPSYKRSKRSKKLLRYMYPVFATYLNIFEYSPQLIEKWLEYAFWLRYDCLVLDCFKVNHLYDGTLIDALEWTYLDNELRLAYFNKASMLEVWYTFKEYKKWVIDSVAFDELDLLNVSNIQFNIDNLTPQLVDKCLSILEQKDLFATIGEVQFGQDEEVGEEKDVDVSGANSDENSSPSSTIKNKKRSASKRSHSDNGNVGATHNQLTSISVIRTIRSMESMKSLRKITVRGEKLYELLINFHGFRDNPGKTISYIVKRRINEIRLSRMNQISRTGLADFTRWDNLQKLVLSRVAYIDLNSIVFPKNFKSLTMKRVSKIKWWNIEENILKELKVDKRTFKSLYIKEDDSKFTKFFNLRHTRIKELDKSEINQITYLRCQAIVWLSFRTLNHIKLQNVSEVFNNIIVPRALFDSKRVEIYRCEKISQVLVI
T1 sequence (P52286 whole entry, chain 3 of 3): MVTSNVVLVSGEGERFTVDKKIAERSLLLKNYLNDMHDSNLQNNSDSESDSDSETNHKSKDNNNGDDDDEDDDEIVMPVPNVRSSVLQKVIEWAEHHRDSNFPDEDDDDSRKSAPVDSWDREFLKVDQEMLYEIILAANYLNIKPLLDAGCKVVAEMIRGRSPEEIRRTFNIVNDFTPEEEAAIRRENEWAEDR

B1: Ndc10 (natural protein, S. cerevisiae, UniProt P32504 1-956, looked up)
chain: MRSSILFLLKLMKIMDVQQQQEAMSSEDRFQELVDSLKPRTAHQYKTYYTKYIQWCQLNQIIPTPEDNSVNSVPYKDLPISAELIHWFLLDTLITDDKPGEKREETEDLDEEEENSFKIATLKKIIGSLNFLSKLCKVHENPNANIDTKYLESVTKLHTHWIDSQKAITTNETNNTNTQVLCPPLLKVSLNLWNPETNHLSEKFFKTCSEKLRFLVDFQLRSYLNLSFEERSKIRFGSLKLGKRDRDAIIYHKVTHSAEKKDTPGHHQLLALLPQDCPFICPQTTLAAYLYLRFYGIPSVSKGDGFPNLNADENGSLLQDIPILRGKSLTTYPREETFSNYYTTVFRYCHLPYKRREYFNKCNLVYPTWDEDTFRTFFNEENHGNWLEQPEAFAFPDKIPFDFKKIMNFKSPYTSYSTNAKKDPFPPPKDLLVQIFPEIDEYKRHDYEGLSQNSRDFLDLMEVLRERFLSNLPWIYKFFPNHDIFQDPIFGNSDFQSYFNDKTIHSKGSPILSFDILPGFNKIYKNKTNFYSLLIERPSQLTFASSHNPDTHPTQKQESEGPLQMSQLDTTQLNELLKQQSFEYVQFQTLSNFQILLSVFNKIFEKLEMKKSSRGYILHQLNLFKITLDERIKKSKIDDADKFIRDNQPIKKEENIVNEDGPNTSRRTKRPKQIRLLSIADSSDESSTEDSNVFKKDGESIEDGAYGENEDENDSEMQEQLKSMINELINSKISTFLRDQMDQFELKINALLDKILEEKVTRIIEQKLGSHTGKFSTLKRPQLYMTEEHNVGFDMEVPKKLRTSGKYAETVKDNDDHQAMSTTASPSPEQDQEAKSYTDEQEFMLDKSIDSIEGIILEWFTPNAKYANQCVHSMNKSGNKSWRANCEALYKERKSIVEFYIYLVNHESLDRYKAVDICEKLRDQNEGSFSRLAKFLRKWRHDHQNSFDGLLVYLSN
notes: synthetic gene codon-optimised for S. cerevisiae; also called full-length Ndc10; source: S. cerevisiae, co-expressed with the other CBF3 subunits and Sgt1; in lysate (pull-down) and purified (heparin, anion exchange, SEC)
Consider B1, for which the “stoichiometry N” value came to 2.
